Data published in patent publication US20190002562A1 (INTERVET, published 2019).

Tests used:
canine PD-1 [1] = molecular target: T1, canine PD-1 (canine); experiment: SPR (Biacore T200), canine PD-1 amine-coupled, antibody as analyte, 1:1 fit
T1 construct: also called canine PD-1 antigen; cPD-1
T1 chain: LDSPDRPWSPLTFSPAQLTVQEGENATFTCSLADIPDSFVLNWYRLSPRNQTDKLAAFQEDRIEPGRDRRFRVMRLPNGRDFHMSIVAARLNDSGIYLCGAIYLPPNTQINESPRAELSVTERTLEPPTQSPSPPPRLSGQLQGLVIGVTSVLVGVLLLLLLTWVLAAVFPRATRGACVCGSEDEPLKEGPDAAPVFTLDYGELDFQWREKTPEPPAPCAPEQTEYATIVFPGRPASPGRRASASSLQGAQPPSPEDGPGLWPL

canine PD-1 [2] = molecular target: T1, canine PD-1; experiment: SPR (Biacore T200), canine PD-1 amine-coupled, antibody as analyte, 1:1 fit; off-rate below the detection limit

kon (canine PD-1 [1]): 23000 M⁻¹ s⁻¹
Kd (canine PD-1 [2]): ≤ 0.2 nM
koff (canine PD-1 [2]): ≤ 5e-06 s⁻¹
B1: Murine 2H9 (antibody, V domains shown)
VH: EVQLQQSVAELVRPGASVKLSCTASGFNIKNTYMHWIKQRPEQGLEWIGRIAPANVDTKYAPKFQGKATITADTSSNTAYMQLSTLTSEDTAIYYCVLIYYDYDGDIDVWGTGTTVTVSS
VL: DIQMNQSPSSLSASLGDTITITCHASQNINVWLSWYQQRPGNIPKLLIYKASHLHTGVPSRFSGSGSGTGFTLTISSLQPEDIATYYCQQGQSWPLTFGAGTKLELK
